The text below walks through data of US20240059799A1 (Pfizer, published 2024).

Positions count from the first letter of the chain named. Read-outs that look alike come from different tables or passages of the source. A value given as a limit tells only on which side of the number the result lay.

In test [1] the target is T1, recombinant human TL1A (human, UniProt O95150 71-251).
T1 construct: Homotrimeric cytokine; biotinylated with Sulfo-NHS-biotin where captured for SPR, coated unlabelled in ELISA, soluble in bioassays; also called TNFSF15
T1 chain: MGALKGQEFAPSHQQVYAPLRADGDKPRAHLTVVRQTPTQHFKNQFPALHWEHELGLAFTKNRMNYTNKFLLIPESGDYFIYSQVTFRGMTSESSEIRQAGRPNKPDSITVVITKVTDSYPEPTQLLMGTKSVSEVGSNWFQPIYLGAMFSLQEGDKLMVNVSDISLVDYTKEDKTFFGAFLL
The experiment in a line: competition ELISA, coated TL1A, competitor bio-TL1A-0002. (In an ELISA, binding on a coated surface is turned into a signal by an enzyme label.)

The target of test [2] is T1, recombinant human TL1A. In words: competition ELISA on plate-coated recombinant human TL1A, competitor biotinylated TL1A-0260 (bio-TL1A-0260), streptavidin-HRP, OD450. Here is the method: (§1) For this competition ELISA assay procedure, 96-well high binding plates (Corning, product number 3590) were coated with 1 μg/mL recombinant TL1A in 100 μL/well in Phospate Buffered Saline (PBS) overnight at 4° C. Plates were then blocked in PBS+0.02% casein solution and washed with PBS+0.05% Tween-20 following standard ELISA protocol. […] Plates were washed with PBS+0.05% Tween-20 following standard ELISA protocol, and Streptavidin-HRP (Southern Biotech, product number 7100-05) diluted to 1:10,000 in assay buffer was added to plates and incubated for 25-30 minutes at room temperature. Next, the plates were washed with PBS+0.05% Tween-20 following standard ELISA protocol, and then TMB substrate (BioFX Laboratories Catalog number TMBW-0100-01) was added to plates. Reactions were stopped after approximately 5 minutes by adding 0.18 M ortho-phosphoric acid to each well and absorbance was read at 450 nm.

For test [3], the target named is T1, recombinant human TL1A. In words: cell-based or functional assay.
The target of test [4] is T1, recombinant human TL1A. The experiment in a line: competition ELISA on plate-coated recombinant human TL1A, competitor biotinylated TL1A-0260 (bio-TL1A-0260), streptavidin-HRP, OD450. How it is done: as §1
Test [5] concerns the target T1, recombinant human TL1A. Described as above. Here is the method:
as §1

For test [6], the target named is T2, full-length human TL1A on CHO-K1 cells (human, UniProt O95150 1-251).
T2 construct: whole, on cells; also called cells over-expressing human TL1A
T2 sequence (looked up): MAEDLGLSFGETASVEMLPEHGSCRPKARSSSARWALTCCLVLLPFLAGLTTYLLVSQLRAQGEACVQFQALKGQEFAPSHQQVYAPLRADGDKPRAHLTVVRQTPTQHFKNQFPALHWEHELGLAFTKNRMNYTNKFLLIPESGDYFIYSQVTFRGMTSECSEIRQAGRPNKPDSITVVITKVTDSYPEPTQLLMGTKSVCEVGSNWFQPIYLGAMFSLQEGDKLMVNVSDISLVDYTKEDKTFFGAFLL
The experiment in a line: flow cytometry on CHO-K1 cells stably expressing full-length human TL1A, PE anti-human IgG, median fluorescent intensity. Here is the method:
A cell binding assay was performed to examine if the panel of [xTL1A] bivalent antibody variants could bind to human TL1A over-expressed on the cell surface. […] [xTL1A] bivalent antibody variants were incubated with cells on ice for 30-60 minutes at a concentration of either 1 μg/mL or 20 μg/mL. Cells were pelleted by centrifugation at 1500 RPM for 5 minutes at 4° C. and supernatant was discarded by aspiration. The cells were washed three times with DPBS with 4% FBS buffer as described. Cells were resuspended in 100 μL of PE-anti-human IgG (Life technologies Catalog number H10104) diluted 1:500 in DPBS with 4% FBS buffer and incubated on ice for 15 minutes. Cells were washed three times as described and resuspended in 200 μL of DPBS with 4% FBS buffer, then run on a flow cytometry instrument.
(In general: In flow cytometry, cells or beads pass a laser one at a time.)

Test [7] concerns the target T1, recombinant human TL1A. The experiment in a line: competition ELISA on plate-coated recombinant human TL1A, competitor biotinylated TL1A-0260 (bio-TL1A-0260), streptavidin-HRP, OD450. How it is done: as §1
Test [8] addresses T3, recombinant human TL1A (human, UniProt O95150 71-251).
T3 construct: homotrimer; biotinylated for SPR capture; the ELISA paragraphs say only 'recombinant TL1A'; also called TNFSF15
T3 chain: T1 chain
The experiment in a line: ELISA, biotinylated antibody on coated recombinant TL1A.

Test [9] deals with T3, recombinant human TL1A. In words: competition ELISA vs bio-TL1A-0002. Here is the method:
as §1, with “Laboratories, catalog” for “Laboratories Catalog”

Test [10] concerns the target T3, recombinant human TL1A. In words: competition ELISA vs bio-TL1A-0002.
The target in test [11] is T4, recombinant mouse TL1A (mouse, UniProt Q5UBV8 75-252).
T4 construct: biotinylated for SPR capture
T4 chain: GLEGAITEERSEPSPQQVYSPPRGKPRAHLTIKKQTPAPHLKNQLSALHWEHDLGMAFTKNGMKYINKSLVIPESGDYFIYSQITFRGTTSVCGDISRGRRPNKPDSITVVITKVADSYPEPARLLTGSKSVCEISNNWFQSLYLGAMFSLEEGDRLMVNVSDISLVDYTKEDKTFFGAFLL
In words: SPR, antibody injected over captured biotinylated TL1A, 37° C. How it is done:
(§2) For these analyses, kinetic assays were conducted at 37° C. using a collection rate of 10 Hz on a Biacore™ T200 instrument (GE Healthcare). […] The association phase was 90 seconds, and the dissociation phases were 1600 seconds over human, cynomolgus monkey and rabbit TL1A and 180 seconds for mouse and rat TL1A.
(§3) In order to determine binding to TL1A, kinetic assays were conducted at 37° C. using a collection rate of 10 Hz on a Biacore™ T200 instrument (GE Healthcare).
(Surface plasmon resonance follows binding to a sensor surface in real time, without labels.)

The target in test [12] is T5, recombinant cynomolgus monkey TL1A (cynomolgus monkey, UniProt O95150 72-251 (human entry)).
T5 construct: biotinylated for SPR capture; also called cyno TL1A
T5 chain: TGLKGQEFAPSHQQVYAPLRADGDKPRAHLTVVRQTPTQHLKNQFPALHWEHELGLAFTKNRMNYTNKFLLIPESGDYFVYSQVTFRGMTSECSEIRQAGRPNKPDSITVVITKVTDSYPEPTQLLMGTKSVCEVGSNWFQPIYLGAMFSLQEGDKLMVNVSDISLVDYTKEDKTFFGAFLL
Described as above. How it is done: as §2, §3

The target of test [13] is T3, recombinant human TL1A. The experiment in a line: cell-based or functional assay.
Test [14] has as its target T6, human serum albumin (human, UniProt P02768 25-609).
T6 construct: also called HSA
The experiment in a line: direct binding ELISA on coated HSA. Here is the method:
(§4) For the direct binding ELISA method to HSA or BSA, 96-well high binding plates (Corning, product number 3590) were coated with 1 μg/mL recombinant HSA or BSA in 100 μL/well in PBS overnight at 4° C. Plates were then blocked in PBS+0.02% casein solution and washed with PBS+0.05% Tween-20 following standard ELISA protocol. […] Plates were washed with PBS+0.05% Tween-20 following standard ELISA protocol, and goat anti-human IgG-Fc HRP conjugated secondary antibody (Pierce, #31413) diluted to 1:10,000 in assay buffer was added to plates and incubated for 1 hour at room temperature. Next, the plates were washed with PBS+0.05% Tween-20 following standard ELISA protocol, and then TMB substrate (BioFX Laboratories, catalog number TMBW-0100-01) was added to plates.
(§5) Reactions were stopped after approximately 5 minutes by adding 0.18 M ortho-phosphoric acid to each well and absorbance was read at 450 nm. […] For this method, samples diluted to 0.3 mg/mL were dispensed into the sample tray of a MicroCal VP-Capillary DSC with Autosampler (Malvern Instruments, Inc.), equilibrated for 5 minutes at 10° C. and then scanned up to 110° C. at a rate of 100° C. per/hour. A filtering period of 16 seconds was selected. Raw data was baseline corrected and the protein concentration was normalized. Origin Software 7.0 (Origin Lab Corporation, Northampton, MA) was used to fit the data to an MN2-State Model with an appropriate number of transitions.

Test [15] addresses T7, bovine serum albumin (bovine, UniProt P02769 25-607).
T7 construct: also called BSA
The experiment in a line: direct binding ELISA on coated BSA. How it is done:
as §4, §5

T7 sequence (P02769 25-607 limits assumed): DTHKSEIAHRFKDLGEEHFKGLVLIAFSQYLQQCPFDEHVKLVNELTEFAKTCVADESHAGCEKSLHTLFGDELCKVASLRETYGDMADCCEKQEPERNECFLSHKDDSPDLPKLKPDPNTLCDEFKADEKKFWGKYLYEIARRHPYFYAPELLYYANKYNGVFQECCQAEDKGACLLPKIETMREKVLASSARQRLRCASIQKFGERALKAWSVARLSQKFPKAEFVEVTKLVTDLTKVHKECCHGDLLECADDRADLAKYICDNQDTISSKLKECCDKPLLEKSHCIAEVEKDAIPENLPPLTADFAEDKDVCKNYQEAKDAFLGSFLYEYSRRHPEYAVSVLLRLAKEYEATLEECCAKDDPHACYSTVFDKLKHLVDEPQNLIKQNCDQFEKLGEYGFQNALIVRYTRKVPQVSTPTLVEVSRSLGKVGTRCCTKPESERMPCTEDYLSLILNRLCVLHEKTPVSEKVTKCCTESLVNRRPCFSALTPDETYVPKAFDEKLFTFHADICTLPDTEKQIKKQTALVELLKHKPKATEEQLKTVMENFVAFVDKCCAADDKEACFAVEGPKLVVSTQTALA

B1: TL1A-0260 (antibody, human IgG1, kappa, V domains shown)
VH: QVQLVQSGAEVKKPGASVKVSCKASGYDYTYYGISWVRQAPGQGLEWMGWISTYNTGTHYAPSLQGRVTMTTDTSTSTAYMELRSLRSDDTAVYYCARESYYGSGAFRGGMDVWGQGTTVTVSS
VL: DIQMTQSPSSLSASVGDRVTITCRASQSVSSYLAWYQQKPGKAPKLLIYDASNRATGVPSRFSGSGSGTDFTLTISSLQPEDFATYYCQQRSNWPWTFGQGTKVEIKR
notes: human IgG1 effector-function-minimized/kappa; also called bio-TL1A-0260 (biotinylated reporter)
A word on the IC50: it is the midpoint of a concentration-inhibition curve. For the molecule B1, in test [1], the “Bioactivity relative to TL1A-0002” value stood at 1.3 fold and the IC50 amounted to 6.8 nM. Besides, the “IC50 (read off the curve)” value in test [2] is about 4 nM. For the same molecule, in [3], the “TF-1 NF-κB reporter cell bioassay IC50” value was determined as 29.2 nM; the “TF-1 NF-κB reporter cell bioassay, Bioactivity relative to TL1A-0002” value was determined as 0.8 fold; the “Whole blood IFNγ assay IC50” value came to 0.755 nM; the “Whole blood IFNγ assay, Bioactivity relative to TL1A-0002” value is 0.9 fold. The “IC50 (read off the curve)” value in test [4] was about 7 nM. Besides, in test [5], the “IC50 (read off the curve)” value is about 4 nM. In test [6], the binding result was “binds”. Besides, the “IC50 (read off the curve)” value in test [7] was about 4 nM.

B2: TL1A-0002 (antibody, human IgG1, kappa, V domains shown)
VH: B1 VH with Y29F, T56G, G57N, P62R, S63M, S77R, S100N, F107Y
VL: EIVLTQSPATLSLSPGERATLSCRASQSVSSYLAWYQQKPGQAPRLLIYDASNRATGIPARFSGSGSGTDFTLTISSLEPEDFAVYYCQQRSNWPWTFGQGTKVEIKR
notes: human IgG1/kappa, effector function minimized; also called bioTL1A-0002 (biotinylated)
One may read the EC50 as the concentration needed to bring the measured effect to its halfway point. B2: in test [8], the EC50 is 5 ng/mL. For the same molecule, in test [9], the “Bioactivity relative to TL1A-0002” value was found to be 1 fold and the IC50 was 4.5 nM. For the same molecule, in test [10], the “Bioactivity relative to TL1A-0002” value turned out to be 1 fold and the IC50 was determined as 4.5 nM.

B3: [xTL1A]-0341 (antibody, human IgG1, kappa, V domains shown)
VH: QVQLVQSGAEVKKPGASVKVSCKASGYTFTSYGISWVRQAPGQGLEWMGWISAYNGNTNYAQKLQGRVTMTTDTSTSTAYMELRSLRSDDTAVYYCARESSYGSEAFRAGMDVWGQGTTVTVSS
VL: B1 VL
notes: bivalent disabled antibody, IgG1 effector-function-minimized/kappa
With B3, the values for the binding result in test [4] and in test [6] were “no binding (tested: 300 nM)” and “no binding (tested: 20 ug/mL)”, respectively.

B4: TL1A-0372 monovalent bispecific antibody (bispecific antibody, human IgG1, kappa)
heavy 1: QVQLVQSGAEVKKPGASVKVSCKASGYDYTYYGISWVRQAPGQGLEWMGWISTYNTGTHYAPSLQGRVTMTTDTSTSTAYMELRSLRSDDTAVYYCARESYYGSGAFRGGMDVWGQGTTVTVSSASTKGPSVFPLAPSSKSTSGGTAALGCLVKDYFPEPVTVSWNSGALTSGVHTFPAVLQSSGLYSLSSVVTVPSSSLGTQTYICNVNHKPSNTKVDKKVEPKSCDKTHTCPPCPAPEAAGAPSVFLFPPKPKDTLMISRTPEVTCVVVDVSHEDPEVKFNWYVDGVEVHNAKTKPREEQYNSTYRVVSVLTVLHQDWLNGKEYKCKVSNKALPAPIEKTISKAKGQPREPQVCTLPPSREEMTKNQVSLWCLVKGFYPSDIAVEWESNGQPENNYKTTPPVLDSDGSFFLYSKLTVDKSRWQQGNVFSCSVLHEALHSHYTQKSLSLSPGK
heavy 2: not shown
light: not shown
notes: KiH, LS
As for B4, the “fold higher affinity to human TL1A than to this TL1A” value in [11] was about 546 fold; in test [12], about 2 fold. In test [13], the “NF-κB assay in TF-1 reporter cells, neutralization relative to TL1A-0002” value is at most 2 fold. Besides, the binding result in test [14] and in test [15] was “no binding (tested: 0.5-1000 nM)” throughout.
